Measured values as given in patent US20160032014A1 (Amgen, published 2016).

Legend:
[1] = molecular target: T1, human PCSK9 (self-cleaved, mature, secreted PCSK9 comprising amino acids 31 to 692 of SEQ ID NO: 2) (human, UniProt Q8NBP7 31-692, biotinylated in the ELISAs); experiment: solution equilibrium, KinExA or BIAcore, pH 7.4
T1 construct: Limits 31-692 are stated for the immunogen; the assays only say human PCSK9; also called huPCSK9; rhu PCSK9

[2] = molecular target: T1, human PCSK9 (self-cleaved, mature, …); experiment: solution equilibrium, BIAcore, pH 5.5
[3] = molecular target: T1, human PCSK9 (self-cleaved, mature, …); experiment: solution equilibrium

Kd [1]: 0.078 nM
Kd [2]: 0.15 nM
pH 5.5/7.4 KD ratio [3]: 1.9
B1: SS-15005 (antibody, IgG2, V domains shown)
VH: EVQLLESGGGLVQPGGSLRLSCAASGFTFSSYAMNWVRQAPGKGLEWVSTISGSGGNTYYADSVKGRFTISRDNSKNTLYLQMNSLRAEDTAVYYCAKKFVLMVYAMLDYWGQGTLVTVSS
VL: DIQMTQSPSSLSASVGDRVTITCRASQSISIYLNWYQQKPGKAPYLLIYAAASLQSGVPSRFSGSGSGTDFTLTISSLQPEDFATYYCQQSYSAPITFGQGTRLEIKR
notes: also called 25G4
